According to US5432264A (priority 1987, dated 1995):
Where two headings read alike, the source gives them in different places. Peptide text beside a SMILES is read from it. * marks the point of attachment. Cbz = O=C(OCc1ccccc1)*; CHN2 = [N-]=[N+]=C*

B1: 3-des-OH-cystatin C: Recombinant 120 amino acid human cystatin C with non-hydroxylated Pro at position 3, expressed in E. coli (protein, UniProt P01034 27-146, looked up)
Cystatin-C: SSPGKPPRLVGGPMDASVEEEGVRRALDFAVGEYNKASNDMYHSRALQVVRARKQIVAGVNYFLDVELGRTTCTKTQPNLDNCPFHDQPHLKRKAFCSFQIYAVPWQGTMTLSKSTCQDA
modifications: non-hydroxylated Pro3
notes: Recombinant 120 amino acid human cystatin C with non-hydroxylated Pro at position 3, expressed in E. coli
B2: human cystatin C: Native cystatin C isolated from human urine; mixture of 3-OH-Pro form and 3-des-OH form (protein, UniProt P01034 27-146, looked up)
Cystatin-C: B1 Cystatin-C

Experiments:
[1] = tested on: poliovirus (Mahoney strain); type: cell-based, poliovirus type 1; conditions: for effect on poliovirus replication (in words): inhibitor added to cultivation medium; for Virus Yield: poliovirus type 1, multiplicity 1, 48 hrs at 37° C.
[2] = tested on: herpes simplex virus type 1 (HSV); type: cell-based
poliovirus type 1 = type: cell-based; conditions: 24 μg per disc, green monkey kidney cells infected with poliovirus type 1
HSV type 1 (F strain) = type: cell-based; conditions: for Virus Yield: 48 hrs at 37° C.
[3] = biological target: cathepsin B (EC 3.4.22.1); experiment: Equilibrium constant for dissociation of inhibitor-enzyme complex, cathepsin B; type: binding
Method: (§1) Biological activity of 3-des-OH-cystatin C was determined through titration against concentration determined papain. The strength of binding 3-des-OH-cystatin on the cystein proteinases papain (EC 3.4.22.2), cathepsin B (EC 3.4.22.1) and dipeptidyl peptidases I (F.C 3.4.14.1) was determined. The equilibrium constant for dissociation of 3-des-OH-cystatinC enzyme complex (0.005 nM, 0.50 nM and 3.1 nM) was within the experimental error limit identical with the equilibrium constant for human cystatin C enzyme complex (<0.005 nM, 0.27 nM and 6.3 nM For papan, cathepsin B and dipeptidyl peptidases I, respectively).

[4] = biological target: dipeptidyl peptidases I (F.C 3.4.14.1); experiment: Equilibrium constant for dissociation of inhibitor-enzyme complex, dipeptidyl peptidase I; type: binding
Method: as §1

papain = experiment: Papain-inhibiting capacity by titration of active papain, substrate Z-Phe-Arg-NHMec; type: biochemical; conditions: papain-inhibiting capacity relative to molar cystatin C concentration; range over several preparations
Method: The papain-inhibiting capacity of recombinant 3-des-OH-cystatin C was compared with the corresponding activity of human cystatin C.
The human cystatin C was isolated from urine of patients with mixed glomerular-tubular proteinuria by ultrafiltration, ion-exchange chromatography and gel filtration as described in literature (ref. 2,3) and lyophilized. A total of ten different preparations of human cystatin C and 3-des-OH-cystatin C were tested for their cystein proteinase inhibitory capacity. The cystatin C and 3-des-OH-cystatin C preparations derived from human urine and recombinant technique, respectively, were individually dissolved in 0.15 mol/l ammonium bicarbonate. Cystatin C concentrations of the resulting solutions were determined by phys-ico-chemical and immuno-diffusion and quantitation of amino acids released at hydrolysis in 6 mol/l HCl). The cysteine proteinase inhibiting capacities of these solutions were determined by adding them to a solution of isolated papain (cf. ref. 4), a plant cysteine proteinase widely used as a model for cysteine proteinases in general, and then determining the residual proteolytic activity of the resulting mixtures.
The cysteine proteinase activities of the papain solution and the cystatin C-papain mixtures were determined using the fluorogenic substrate Z-Phe-Arg-NHMec (ref. 5). […]

Row | Molecule | effect on poliovirus replication (in words) [1] | Virus Yield ([1]; 0.4 mM Z-LVG-CHN2 in 1% DMSO) | inhibition of plaque formation around disc [2] | inhibition of plaque formation around disc (poliovirus type 1) | inhibition of HSV replication (HSV type 1 (F strain)) | Virus Yield (HSV type 1 (F strain)) | Kd [3] | Virus Yield ([1]; 0.10 mM cystatin C in MEM) | Kd [4] | molar inhibitory capacity (papain) | effect on HSV replication (in words) (HSV type 1 (F strain))
1 | CC(C)C[C@H](NC(=O)OCc1ccccc1)C(=O)N[C@H](C(=O)NCC(=O)C=[N+]=[N-])C(C)C [Z-LVG-CHN2, N-benzyloxycarbonyl-leucyl-valyl-glycine diazomethyl ketone, reference compound] (Cbz-Leu-Val-Gly-CHN2) | hardly significant | 4.8 × 10^7 pfu/ml | marked inhibition zones | no inhibition of plaque formation | > 99.9 | 1.4 × 10^3 |  |  |  |  | 
2 | B1 | no influence on the replication of poliovirus |  |  |  |  | 2.4 × 10^3 | 0.5 nM | 1.1 × 10^8 pfu/ml | 3.1 nM | 83-98% | potent inhibitor of HSV replication
3 | B2 |  |  |  |  |  |  | 0.27 nM |  | 6.3 nM | 5-55% | 
